According to paper PMC4072592, “The EJC Binding and Dissociating Activity of PYM Is Regulated in Drosophila” (PLoS Genetics, 2014):

Target: T1, FL-PYM-GFP (S2 cells) (Drosophila, UniProt P82804 1-207)
T1 construct: Drosophila PYM (wibg, CG30176), full length coding region amplified from ovarian cDNA; also called GFP-tagged FL-PYM; source: S2 cells, transiently transfected, in cytoplasmic extract; not shown: eGFP, C-terminal, kept
T1 sequence (looked up): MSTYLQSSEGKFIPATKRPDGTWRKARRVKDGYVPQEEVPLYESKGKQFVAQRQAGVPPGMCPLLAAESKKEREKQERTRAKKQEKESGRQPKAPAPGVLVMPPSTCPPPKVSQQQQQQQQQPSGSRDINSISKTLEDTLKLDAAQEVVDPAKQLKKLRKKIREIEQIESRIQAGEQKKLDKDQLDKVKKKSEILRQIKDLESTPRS
Experiment: co-IP + cross-linking; as the native GFP-Trap IP from S2 cell extracts, but extracts cross-linked with 1 mM DSP for 1 h at 4°C before the IP; blots quantified by densitometry
Settings: partners not purified

fold increase of binding upon DSP treatment against native: 1.7 fold
B1: Y14-Mago heterodimer, endogenous in S2 cells (complex)
chain 1: not shown
chain 2: not shown
notes: Y14 (Tsunagi), Drosophila, endogenous; Mago nashi (Mago), Drosophila, endogenous; also called Mago and Y14; Mago-Y14; source: endogenous, cytoplasmic extract of Drosophila S2 cells
